Laboratory results reported in patent US20220153862A1 (CSPC MEGALITH BIOPHARMACEUTICAL, published 2022).

Target: T1, human Trophoblast cell surface antigen 2 (TROP2) (human, UniProt P09758 27-274, limits assumed)
T1 construct: Analyte in the SPR experiments and immunogen; also called human TROP2
T1 sequence: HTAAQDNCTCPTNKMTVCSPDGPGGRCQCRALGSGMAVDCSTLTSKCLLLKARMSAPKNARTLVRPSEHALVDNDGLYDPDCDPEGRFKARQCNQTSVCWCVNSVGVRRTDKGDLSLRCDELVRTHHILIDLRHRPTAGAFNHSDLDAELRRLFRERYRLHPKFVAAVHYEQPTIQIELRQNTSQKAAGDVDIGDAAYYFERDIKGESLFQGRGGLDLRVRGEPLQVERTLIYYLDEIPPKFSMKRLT
Experiment: SPR affinity ranking, human TROP2

Binder	Kd	koff	kon
HC5/LC3 (antibody, human IgG1, kappa, V domains shown, Humanized anti-TROP2 antibody) VH: EVQLVQSGAEVKKPGESLKISCKGSGYTFTDYSINWVRQMPGKGLEWMGVISTYYGDASYNQKFKGQVTISADKSISTAYLQWSSLKASDTAMYYCARYGDGYNQFDYWGQGTLVTVSS VL: DIVMTQSPLSLPVTPGEPASISCRVSESVDSYGNNFMHWYLQKPGQSPQLLIYRASNLESGVPDRFSGSGSGTDFTLKISRVEAEDVGVYYCQQSYEDPYTFGGGTKVEIKR	0.182 nM	0.000266 s⁻¹	1.46e+06 M⁻¹ s⁻¹
HC5/LC2 (antibody, human IgG1, kappa, V domains shown, Humanized anti-TROP2 antibody) VH: EVQLVQSGAEVKKPGESLKISCKGSGYTFTDYSINWVRQMPGKGLEWMGVISTYYGDASYNQKFKGQVTISADKSISTAYLQWSSLKASDTAMYYCARYGDGYNQFDYWGQGTLVTVSS VL: DVVMTQSPLSLPVTLGQPASISCRVSESVDSYGNNFMHWFQQRPGQSPRRLIYRASNLESGVPDRFSGSGSGTDFTLKISRVEAEDVGVYYCQQSYEDPYTFGGGTKVEIKR	1.54 nM	0.000402 s⁻¹	261000 M⁻¹ s⁻¹
HC2/LC5 (antibody, human IgG1, kappa, V domains shown, Humanized anti-TROP2 antibody) VH: QVQLVQSGAEVKKPGASVKVSCKASGYTFTDYSINWVRQAPGQGLEWMGVISTYYGDASYNQKFKGRVTMTRDTSTSTVYMELSSLRSEDTAVYYCARYGDGYNQFDYWGQGTLVTVSS VL: DIQMTQSPSSLSASVGDRVTITCRVSESVDSYGNNFMHWYQQKPGKAPKLLIYRASNLESGVPSRFSGSGSGTDFTFTISSLQPEDIATYYCQQSYEDPYTFGGGTKLEIKR	0.052 nM	7.38e-05 s⁻¹	1.42e+06 M⁻¹ s⁻¹
HC2/LC3 (antibody, human IgG1, kappa, V domains shown, Humanized anti-TROP2 antibody) VH: QVQLVQSGAEVKKPGASVKVSCKASGYTFTDYSINWVRQAPGQGLEWMGVISTYYGDASYNQKFKGRVTMTRDTSTSTVYMELSSLRSEDTAVYYCARYGDGYNQFDYWGQGTLVTVSS VL: DIVMTQSPLSLPVTPGEPASISCRVSESVDSYGNNFMHWYLQKPGQSPQLLIYRASNLESGVPDRFSGSGSGTDFTLKISRVEAEDVGVYYCQQSYEDPYTFGGGTKVEIKR	0.104 nM	0.000141 s⁻¹	1.36e+06 M⁻¹ s⁻¹
HC4/LC2 (antibody, human IgG1, kappa, V domains shown, Humanized anti-TROP2 antibody) VH: QVQLVQSGAEVKKPGSSVKVSCKASGYTFTDYSINWVRQAPGQGLEWMGVISTYYGDASYNQKFKGRVTITADESTSTAYMELSSLRSEDTAVYYCARYGDGYNQFDYWGQGTLVTVSS VL: DVVMTQSPLSLPVTLGQPASISCRVSESVDSYGNNFMHWFQQRPGQSPRRLIYRASNLESGVPDRFSGSGSGTDFTLKISRVEAEDVGVYYCQQSYEDPYTFGGGTKVEIKR	5.34 nM	0.000984 s⁻¹	184000 M⁻¹ s⁻¹
HC5/LC5 (antibody, human IgG1, kappa, V domains shown, Humanized anti-TROP2 antibody) VH: EVQLVQSGAEVKKPGESLKISCKGSGYTFTDYSINWVRQMPGKGLEWMGVISTYYGDASYNQKFKGQVTISADKSISTAYLQWSSLKASDTAMYYCARYGDGYNQFDYWGQGTLVTVSS VL: DIQMTQSPSSLSASVGDRVTITCRVSESVDSYGNNFMHWYQQKPGKAPKLLIYRASNLESGVPSRFSGSGSGTDFTFTISSLQPEDIATYYCQQSYEDPYTFGGGTKLEIKR	0.238 nM	0.000338 s⁻¹	1.42e+06 M⁻¹ s⁻¹
HC2/LC4 (antibody, human IgG1, kappa, V domains shown, Humanized anti-TROP2 antibody) VH: QVQLVQSGAEVKKPGASVKVSCKASGYTFTDYSINWVRQAPGQGLEWMGVISTYYGDASYNQKFKGRVTMTRDTSTSTVYMELSSLRSEDTAVYYCARYGDGYNQFDYWGQGTLVTVSS VL: EIVLTQSPATLSLSPGERATLSCRVSESVDSYGNNFMHWYQQKPGQAPRLLIYRASNLESGIPARFSGSGSGTDFTLTISSLEPEDFAVYYCQQSYEDPYTFGGGTKVEIKR	0.0957 nM	0.00014 s⁻¹	1.46e+06 M⁻¹ s⁻¹
HC2/LC1 (antibody, human IgG1, kappa, V domains shown, Humanized anti-TROP2 antibody) VH: QVQLVQSGAEVKKPGASVKVSCKASGYTFTDYSINWVRQAPGQGLEWMGVISTYYGDASYNQKFKGRVTMTRDTSTSTVYMELSSLRSEDTAVYYCARYGDGYNQFDYWGQGTLVTVSS VL: DIVMTQSPDSLAVSLGERATINCRVSESVDSYGNNFMHWYQQKPGQPPKLLIYRASNLESGVPDRFSGSGSGTDFTLTISSLQAEDVAVYYCQQSYEDPYTFGQGTKLEIKR	0.0375 nM	5.78e-05 s⁻¹	1.54e+06 M⁻¹ s⁻¹
HC3/LC3 (antibody, human IgG1, kappa, V domains shown, Humanized anti-TROP2 antibody) VH: QVQLVQSGAEVKKPGASVKVSCKASGYTFTDYSINWVRQAPGQRLEWMGVISTYYGDASYNQKFKGRVTITRDTSASTAYMELSSLRSEDTAVYYCARYGDGYNQFDYWGQGTLVTVSS VL: DIVMTQSPLSLPVTPGEPASISCRVSESVDSYGNNFMHWYLQKPGQSPQLLIYRASNLESGVPDRFSGSGSGTDFTLKISRVEAEDVGVYYCQQSYEDPYTFGGGTKVEIKR	0.107 nM	0.000159 s⁻¹	1.49e+06 M⁻¹ s⁻¹
HC4/LC1 (antibody, human IgG1, kappa, V domains shown, Humanized anti-TROP2 antibody) VH: QVQLVQSGAEVKKPGSSVKVSCKASGYTFTDYSINWVRQAPGQGLEWMGVISTYYGDASYNQKFKGRVTITADESTSTAYMELSSLRSEDTAVYYCARYGDGYNQFDYWGQGTLVTVSS VL: DIVMTQSPDSLAVSLGERATINCRVSESVDSYGNNFMHWYQQKPGQPPKLLIYRASNLESGVPDRFSGSGSGTDFTLTISSLQAEDVAVYYCQQSYEDPYTFGQGTKLEIKR	0.0457 nM	7.74e-05 s⁻¹	1.69e+06 M⁻¹ s⁻¹
HC3/LC1 (antibody, human IgG1, kappa, V domains shown, Humanized anti-TROP2 antibody) VH: QVQLVQSGAEVKKPGASVKVSCKASGYTFTDYSINWVRQAPGQRLEWMGVISTYYGDASYNQKFKGRVTITRDTSASTAYMELSSLRSEDTAVYYCARYGDGYNQFDYWGQGTLVTVSS VL: DIVMTQSPDSLAVSLGERATINCRVSESVDSYGNNFMHWYQQKPGQPPKLLIYRASNLESGVPDRFSGSGSGTDFTLTISSLQAEDVAVYYCQQSYEDPYTFGQGTKLEIKR	0.067 nM	0.00011 s⁻¹	1.65e+06 M⁻¹ s⁻¹
HC2/LC2 (antibody, human IgG1, kappa, V domains shown, Humanized anti-TROP2 antibody) VH: QVQLVQSGAEVKKPGASVKVSCKASGYTFTDYSINWVRQAPGQGLEWMGVISTYYGDASYNQKFKGRVTMTRDTSTSTVYMELSSLRSEDTAVYYCARYGDGYNQFDYWGQGTLVTVSS VL: DVVMTQSPLSLPVTLGQPASISCRVSESVDSYGNNFMHWFQQRPGQSPRRLIYRASNLESGVPDRFSGSGSGTDFTLKISRVEAEDVGVYYCQQSYEDPYTFGGGTKVEIKR	865 nM	0.0251 s⁻¹	24900 M⁻¹ s⁻¹
HC1/LC4 (antibody, human IgG1, kappa, V domains shown, Humanized anti-TROP2 antibody) VH: QVQLVQSGAEVKKPGASVKVSCKASGYTFTDYSINWVRQAPGQGLEWMGVISTYYGDASYNQKFKGRVTMTTDTSTSTAYMELRSLRSDDTAVYYCARYGDGYNQFDYWGQGTMVTVSS VL: EIVLTQSPATLSLSPGERATLSCRVSESVDSYGNNFMHWYQQKPGQAPRLLIYRASNLESGIPARFSGSGSGTDFTLTISSLEPEDFAVYYCQQSYEDPYTFGGGTKVEIKR	0.0911 nM	0.000126 s⁻¹	1.38e+06 M⁻¹ s⁻¹
HC3/LC4 (antibody, human IgG1, kappa, V domains shown, Humanized anti-TROP2 antibody) VH: QVQLVQSGAEVKKPGASVKVSCKASGYTFTDYSINWVRQAPGQRLEWMGVISTYYGDASYNQKFKGRVTITRDTSASTAYMELSSLRSEDTAVYYCARYGDGYNQFDYWGQGTLVTVSS VL: EIVLTQSPATLSLSPGERATLSCRVSESVDSYGNNFMHWYQQKPGQAPRLLIYRASNLESGIPARFSGSGSGTDFTLTISSLEPEDFAVYYCQQSYEDPYTFGGGTKVEIKR	0.14 nM	0.000192 s⁻¹	1.37e+06 M⁻¹ s⁻¹
HC4/LC3 (antibody, human IgG1, kappa, V domains shown, Humanized anti-TROP2 antibody) VH: QVQLVQSGAEVKKPGSSVKVSCKASGYTFTDYSINWVRQAPGQGLEWMGVISTYYGDASYNQKFKGRVTITADESTSTAYMELSSLRSEDTAVYYCARYGDGYNQFDYWGQGTLVTVSS VL: DIVMTQSPLSLPVTPGEPASISCRVSESVDSYGNNFMHWYLQKPGQSPQLLIYRASNLESGVPDRFSGSGSGTDFTLKISRVEAEDVGVYYCQQSYEDPYTFGGGTKVEIKR	0.0916 nM	0.000178 s⁻¹	1.95e+06 M⁻¹ s⁻¹
HC1/LC3 (antibody, human IgG1, kappa, V domains shown, Humanized anti-TROP2 antibody) VH: QVQLVQSGAEVKKPGASVKVSCKASGYTFTDYSINWVRQAPGQGLEWMGVISTYYGDASYNQKFKGRVTMTTDTSTSTAYMELRSLRSDDTAVYYCARYGDGYNQFDYWGQGTMVTVSS VL: DIVMTQSPLSLPVTPGEPASISCRVSESVDSYGNNFMHWYLQKPGQSPQLLIYRASNLESGVPDRFSGSGSGTDFTLKISRVEAEDVGVYYCQQSYEDPYTFGGGTKVEIKR	0.121 nM	0.000196 s⁻¹	1.62e+06 M⁻¹ s⁻¹
HC3/LC5 (antibody, human IgG1, kappa, V domains shown, Humanized anti-TROP2 antibody) VH: QVQLVQSGAEVKKPGASVKVSCKASGYTFTDYSINWVRQAPGQRLEWMGVISTYYGDASYNQKFKGRVTITRDTSASTAYMELSSLRSEDTAVYYCARYGDGYNQFDYWGQGTLVTVSS VL: DIQMTQSPSSLSASVGDRVTITCRVSESVDSYGNNFMHWYQQKPGKAPKLLIYRASNLESGVPSRFSGSGSGTDFTFTISSLQPEDIATYYCQQSYEDPYTFGGGTKLEIKR	0.114 nM	0.000151 s⁻¹	1.32e+06 M⁻¹ s⁻¹
HC3/LC2 (antibody, human IgG1, kappa, V domains shown, Humanized anti-TROP2 antibody) VH: QVQLVQSGAEVKKPGASVKVSCKASGYTFTDYSINWVRQAPGQRLEWMGVISTYYGDASYNQKFKGRVTITRDTSASTAYMELSSLRSEDTAVYYCARYGDGYNQFDYWGQGTLVTVSS VL: DVVMTQSPLSLPVTLGQPASISCRVSESVDSYGNNFMHWFQQRPGQSPRRLIYRASNLESGVPDRFSGSGSGTDFTLKISRVEAEDVGVYYCQQSYEDPYTFGGGTKVEIKR	10.4 nM	0.00177 s⁻¹	169000 M⁻¹ s⁻¹
HC4/LC4 (antibody, human IgG1, kappa, V domains shown, Humanized anti-TROP2 antibody) VH: QVQLVQSGAEVKKPGSSVKVSCKASGYTFTDYSINWVRQAPGQGLEWMGVISTYYGDASYNQKFKGRVTITADESTSTAYMELSSLRSEDTAVYYCARYGDGYNQFDYWGQGTLVTVSS VL: EIVLTQSPATLSLSPGERATLSCRVSESVDSYGNNFMHWYQQKPGQAPRLLIYRASNLESGIPARFSGSGSGTDFTLTISSLEPEDFAVYYCQQSYEDPYTFGGGTKVEIKR	0.052 nM	8.88e-05 s⁻¹	1.71e+06 M⁻¹ s⁻¹
